# Measurements taken from PMC8445998 (Nature Communications, 2021).
# Changes are numbered by the printed parent chain. Numbers in names are those of the source.
# B1: His6-OSK1^S53D (natural protein, rice, UniProt Q6PL11 1-173, looked up)
# chain: MAAEGEKKMITLKSSDGEEFEVEEAVAMESQTIRHMIEDDCADNGIPLPNVNDKILSKVIEYCNKHVHAAAAAASKAADDAASAAAAVPPPSGEDLKNWDADFVKVDQATLFDLILAANYLNIKGLLDLTCQTVADMIKGKTPEEIRKTFNIKNDFTPEEEEEIRRENQWAFE
# B2: GST-OSK1 (natural protein, rice, UniProt Q6PL11 1-173, looked up)
# chain: B1 chain with D53S
# notes: not shown: GST, N-terminal, kept
# B3: His6-OSK1 (natural protein, rice, UniProt Q6PL11 1-173, looked up)
# chain: B1 chain with D53S
# B4: GST-OSK1^S53D (natural protein, rice, UniProt Q6PL11 1-173, looked up)
# chain: B1 chain
# notes: as for B2
# How the values were obtained:
# Conditions in all cases: both partners purified
# His6-TF-SUMO-OsCOI1b = target: T1, His6-TF-SUMO-OsCOI1b (rice, UniProt Q60EH4 1-597); experiment: MST
# T1 construct: also called His6-OsCOI1b
# T1 sequence (looked up): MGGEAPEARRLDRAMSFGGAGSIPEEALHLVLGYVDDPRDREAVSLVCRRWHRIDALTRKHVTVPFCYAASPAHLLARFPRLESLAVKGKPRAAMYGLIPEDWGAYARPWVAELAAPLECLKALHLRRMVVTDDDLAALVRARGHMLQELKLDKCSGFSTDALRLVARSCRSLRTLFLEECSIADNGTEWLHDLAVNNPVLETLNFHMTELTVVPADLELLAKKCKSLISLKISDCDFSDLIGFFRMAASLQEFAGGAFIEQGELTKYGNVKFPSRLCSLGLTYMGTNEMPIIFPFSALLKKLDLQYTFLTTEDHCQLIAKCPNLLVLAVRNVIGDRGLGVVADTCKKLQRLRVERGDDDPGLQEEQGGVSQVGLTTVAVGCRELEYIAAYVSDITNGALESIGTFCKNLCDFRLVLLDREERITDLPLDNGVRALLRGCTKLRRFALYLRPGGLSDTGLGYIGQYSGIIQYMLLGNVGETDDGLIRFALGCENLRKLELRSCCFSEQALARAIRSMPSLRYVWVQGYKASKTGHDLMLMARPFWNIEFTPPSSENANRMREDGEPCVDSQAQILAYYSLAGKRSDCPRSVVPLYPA
# [1] = target: T2, His6-TF-SUMO-tagged OsCOI1b^R13A (rice, UniProt Q60EH4 1-597, R13A); experiment: pull-down
# T2 sequence (looked up): T1 sequence (looked up) with R13A
# [2] = target: T3, His6-TF-SUMO-tagged OsCOI1b^R10A (rice, UniProt Q60EH4 1-597, R10A); experiment: pull-down
# T3 sequence (looked up): T1 sequence (looked up) with R10A
# [3] = target: T4, His6-TF-SUMO-tagged OsCOI1b^R9A (rice, UniProt Q60EH4 1-597, R9A); experiment: pull-down
# T4 sequence (looked up): T1 sequence (looked up) with R9A
binder,measurement,setting,value
B1,Kd,His6-TF-SUMO-OsCOI1b,0.0127 µM
B2,binding result,[1],binds
same,binding result,[2],binds
same,binding result,[3],binds
B3,Kd,His6-TF-SUMO-OsCOI1b,0.0538 µM
B4,binding result,[1],binds
same,binding result,[2],binds
same,binding result,[3],binds
